From the RNAGym collection of RNA variant scans (doi:10.1073/pnas.2313332121)

B1: TPR t1 (parent)
chain: GACCAAUCUGCCCUCAGAGCUCGAGAACAUCUUCGGAUGCAGAGGAGGCAGGCUUCGGUGGCGCGAUAGCGCCAACGUCCUCAACCUCCAAUGCAUCCCACCACAUGAUGAUGCCUGAAGAGCCUUGGUUUUUUG

Variants of: B1
Test: polymerase ribozyme fitness, log enrichment relative to wild type (log ratio); higher = more active; in vitro selection for triplet polymerase activity
Method in brief: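 Mutant libraries were PCR-built and transcribed for each subunit of a heterodimeric triplet polymerase ribozyme and selected for one round in triplicate at −7 °C, frozen, before gel excision of extended constructs and streptavidin-bead capture. Input and output libraries were Illumina-sequenced, keeping genotypes with ≥10 input reads and ≥1 read per output. Fitness is a logarithmic ratio of genotype to wild-type enrichment, in base 2, using inverse-variance-weighted replicate averages.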

Variant | polymerase ribozyme fitness (log ratio)
C13U G58C A84G | -0.641
C82A C102A | -2.33
A26G U78C | -2.25
C53A C70U C115A A118U | -1.34
C8G G71A | 0.0703
C15U A18G U59A G93C C104U | -5.54
C22G G63C | -4.13
A27G U96G C99G U129A | -6.24
U59C G120A | 0.486
C73U U87A C115A | -0.423
A29C A37C C94U G120C | -4.25
C11A U106A G110U | -1.4
C56A C88U G120U | -0.86
G71A U106C | -1.36
G23U C123U | -4.37
G39U C49A G71U G127A | -2.56
C13G C53U | -1.87
G60A A90U | -1.06
C11U G19A C53G U55A A91C | -2.36
U9A G61A A75U U96G A121G U129C G135U | 0.515
C4A C86G | -2.58
C12U C20U A91U U116G | -4.44
A2G C12U A29U G69C A75G C94A C123U | -4.95
C12U G61U | 0.129

Variant | polymerase ribozyme fitness (log ratio)
A37G G39A C86G | -3.13
A18G G19U C73A C79U | -1.75
A50U U55C U92G A118G | -5.06
A27G U106A | -2.32
U21C G110U G113U | -4.79
C12U A18G A41U G47C U109G C124G | -2.39
G23A G61A U87C | -6.59
C20G G23U U32A C98G C123G U131G | -6.64
A95U G127A | -2.95
G23A G77C G120C | -6.71
C53A G57C U78A U112A A119G | 2.05
U7G G51C C115U | -5.78
C49G G57U C82G U96G | -2.49
U78A C94U C115A G127C | -1.41
C4U C31U G61U C98G C101A C114U | -6.59
A18G C53A C72U C85G | -4.61
A5C C76U | -0.646
A37U C40U U87C G135U | -1.29
A16U C40A G51A U92C G113C U116C G117C | -6.65
A2U G63A A84U C86U | -3.92
C20U C97G | -5.61
U87C C88A U106G | -2.76
G36C C72A G122A | -1.22
G57C C114G U131C | -2.69

Variant | polymerase ribozyme fitness (log ratio)
G61U U109G | -4.68
A37U G127U | -1.42
C70A C97U | -2.23
A29U C62U C89G | -3
C11U G71U C123A | 1.29
C79U U109G | -5.09
G47U G120U | -0.0894
C12A G69C | -2.39
C13U C115A | -0.378
C70G U87C | -4.17
C12A C40U U87G | -1.56
A6C U9G G69U A83G A91C G117U | -0.828
A2U C8G | -0.639
C72G G110A | -1.14
G93C G120A U130C | 0.452
C53G C114U G127C | -2.8
A29G U38G A43U A90C G113U U125C | -3.96
C8G G48U G58C G60U U125G | -0.353
A50G G71A | -1.41
C28U G120A | -1.19
U9G A108G | -1.95
C72A C124U U131A | 1.33
C49U C124G | 0.761
C12G U78A G93A C124G | 0.89

Variant | polymerase ribozyme fitness (log ratio)
G61A U106C G122A | -0.878
C72U U78C C97U | -1.02
C34U G48U | -4.63
U9C U92G | -1.58
C56U U78C U81G C94U | -1.62
A6G A18U C40G G42U U81C | -4.14
A100U U133G | -0.612
C12U A16C U59A U92C C124A | 0.146
A37U G45A C72G | -1.92
C15U C124U | 0.776
C34U G110A | -4.68
G69A C72G A95G U125A | -6.14
A46U G47A A50G G60A | -3.56
A100C G120A | 1.47
C115A A119U | -1.26
C13G G48U C64U | -2.15
A37U C114A C124U | -1.39
U96A C124U | 1.03
C34U C123U | -2.86
C76A C85A | -0.928
G52A A74U | -0.719
A37U G71U G122A | -1.17
C94A G127C | -2.37
U106C U109A A121U | -4.69

Variant | polymerase ribozyme fitness (log ratio)
C3A G52U C64U | -2.19
C22A G110A | -4.72
C49U G58C | -0.728
C13G C22U G113A | -4.71
A74U G113U | -3.37
A26U C72U C124U | -1.98
C8A A26U C115U | -5.1
A50U C72U C73G G122A C124U | -0.982
A43C G51U C56U G58A C80A C89G C101A G122U C123A G127A | -6.31
C20A G44U | -4.1
C3U G10U A41C C115U U126G | -6.14
C11G A18U G48U C49U G61A | -3.32
C40G C70G | -4.89
A46U G61A A66U G113U C123G U129A | -5.08
C80U G93C | -1.44
C12U G19A C56G U130C | -2.66
G52C G71C C102U C104A | -3.27
C13A C64U | -1.99
C85G C123A | -0.897
G48U C76G G110A G127A | -2.63
G60A G93U | -1.61
G39U U54G C73G | -4.41
G23A G63U | -7.02
A74U C85U C94A | -1.55

Variant | polymerase ribozyme fitness (log ratio)
C56A C94U | -0.146
G39C G44U | -2.29
U87C C115U | -0.297
C12G C70G | -2.83
C70U G113C | -3.06
C49U G71U | -0.77
C62A G110C | -5.17
G44C C49U C114U | -3.24
C64U A66U C72U C97A C123G | -4.97
C4A G61C C79G | -3.95
C49U C64U | -0.897
C8A U21G | -1.24
A16U G45C C56G C64U A83C | -4.1
C86A A121G | 1.66
C56U G110U | -0.767
C22G C72U C114A | -3.16
G71A C94U | -1.55
C115G | -1.59
C34A G39U C73G C98A | -4.33
A43C G48C | -2.99
C3U G110U | -1.54
C11U C34G A46U G120A A121G | -5.6
G51C C56U G110A | -5.23
A2G A5G U7G U21G A43C G69U C88A C101U U129A | -3.72

Variant | polymerase ribozyme fitness (log ratio)
C85G U133G | -2.39
U7G G10U C79G | -1.66
U78C C115U | 0.0691
U54C C86G C88A C101U U129C | -3.66
C28U U55A G71C | -2.75
C8A C20U G60A C98U | -0.889
C3U C70U G110A | -2.71
A50U C70G A84C C115A | -4.54
G10A U33C C86A A111U | -6.34
C22U C40G G69U C79U C82G | -3.66
C31U C123A | -4.45
U38A G60A A121C G135U | -1.36
C12U U33G G69U C99A C115A U125C | -6.8
U14G G61U C89A C99G G113C C115U | -6.86
G61A C88U U131G | -0.555
A24G C82G | -1.98
A37U A66C A75U G120C | -1.07
G39U G47U | -2.97
C8U G47C G77C U129G | -3.36
G63C C101U C102U G120C | -2.17
U30C G71U | -3.2
G47C G71C G117U | -4.58
G65A | -3.57
